Test [1] deals with CD163 on macrophages of all six pigs 628, 633, 627, 634, 629, 630 (wild type, heterozygous and ΔSRCR5). The test is described as follows: cell-based or functional assay.
Test [2] shares this target. The test is described as follows: flow cytometry on PAMs, isotype control staining of the six pigs. In general terms: A flow cytometer gives signals particle by particle.
The target is the same in test [3]. The test is described as follows: flow cytometry on PMMs, isotype control staining of the six pigs.
Test [4] addresses CD163 on macrophages of heterozygous pigs 627 and 634 (both the full-length and the ΔSRCR5 protein). The test is described as follows: cell-based or functional assay.
Test [5] has as its target wild type (full-length, unmodified) porcine CD163 (pig) (UniProt Q2VL90). The test is described as follows: cell-based or functional assay.
The target in test [6] is ΔSRCR5 CD163 (porcine CD163 with the SRCR5 domain deleted) (pig) (UniProt Q2VL90). The test is described as follows: cell-based or functional assay.
The target is the same in test [7]. The experiment in a line: flow cytometry on PAMs of pig 629 (ΔSRCR5).
Test [8] has the same target. The experiment in a line: flow cytometry on PAMs of pig 630 (ΔSRCR5).
Test [9] has the same target. The experiment in a line: flow cytometry on PMMs of pig 629 (ΔSRCR5).
The target is the same in test [10]. The test is described as follows: flow cytometry on PMMs of pig 630 (ΔSRCR5).
In test [11] the target is wild type (full-length, unmodified) porcine CD163 (pig) (UniProt Q2VL90). The test is described as follows: flow cytometry on PAMs of pig 628 (wild type).
The target is the same in test [12]. The experiment in a line: flow cytometry on PAMs of pig 633 (wild type).
The target is the same in test [13]. The test is described as follows: flow cytometry on PMMs of pig 628 (wild type).
Test [14] has the same target. The experiment in a line: flow cytometry on PMMs of pig 633 (wild type).
In test [15] the target is CD163 on macrophages of heterozygous pigs 627 and 634 (both the full-length and the ΔSRCR5 protein). The test is described as follows: flow cytometry on PAMs of pig 627 (heterozygous).
Test [16] shares this target. The experiment in a line: flow cytometry on PAMs of pig 634 (heterozygous).
Test [17] shares this target. The experiment in a line: flow cytometry on PMMs of pig 627 (heterozygous).
For test [18] the target is unchanged. The experiment in a line: flow cytometry on PMMs of pig 634 (heterozygous).

Values joined by “and” are separate entries in the source; they are usually repeats but may differ in a detail not shown here. Identical values can stand only once.

As for “hemoglobin-haptoglobin complex (Hb-Hp) (from UniProt P69905 2-142; P68871 2-147; P00738 19-406) (ligand)”, the HO-1 mRNA upregulation in PMMs after 24 h with Hb-Hp, RT-qPCR in [1] was 2 fold and 6 fold.
Regarding “mouse IgG1 or IgG2b negative control (AbD Serotec, MCA928PE, MCA691F, or Sigma, F6397) (antibody)”, the median of fluorescence intensity in test [2] lay within 2.13 to 3.84; in [3] it was 1.88 to 3.79.
In [4], “Alexa Fluor 488-labelled hemoglobin-haptoglobin complex (HbAF488-Hp) (from UniProt P69905 2-142; P68871 2-147; P00738 19-406) (ligand)” displayed a medians of green fluorescence, HbAF488-Hp uptake into PMMs by FACS, animal 627 (heterozygous) of 329 and a medians of green fluorescence, HbAF488-Hp uptake into PMMs by FACS, animal 634 (heterozygous) of 366. In test [5], this substance displayed a medians of green fluorescence, HbAF488-Hp uptake into PMMs by FACS, animal 628 (wild type) of 329 and a medians of green fluorescence, HbAF488-Hp uptake into PMMs by FACS, animal 633 (wild type) of 305. For the same substance, in [6], the medians of green fluorescence, HbAF488-Hp uptake into PMMs by FACS, animal 629 (ΔSRCR5) came to 340 and the medians of green fluorescence, HbAF488-Hp uptake into PMMs by FACS, animal 630 (ΔSRCR5) was found to be 405.
Turning to “mouse anti-pig CD163 antibody, clone 2A10/11 (AbD Serotec, MCA2311PE)”, the median of CD163 fluorescence intensity in test [7] is 17.9; in test [8] it was 26.7; in test [9], 18.8; in test [10], 17.2; in test [11], 35.9; in test [12] it was 22.7. The median of CD163 fluorescence intensity in test [13] is 23.3; in [14] it was 16.7; in test [15] it was 26.4; in [16] it was 24.4; in test [17] it was 18.3; in test [18], 16.5.

For the origin of these results see patent publication US20200045945A1.
